Source: US20120034160A1 (AbbVie / Abbott, published 2012)

T1: Recombinant Human IL-17 (human, UniProt Q16552 20-155, limits assumed)
T1 sequence (looked up): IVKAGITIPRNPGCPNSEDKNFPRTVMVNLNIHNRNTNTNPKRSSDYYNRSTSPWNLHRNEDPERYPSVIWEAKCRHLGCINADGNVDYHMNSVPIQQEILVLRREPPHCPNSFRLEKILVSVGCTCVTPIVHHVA

T2: Recombinant Human IL-17 (human, UniProt Q16552 20-155, limits assumed)
T2 construct: bought reagent
T2 sequence (looked up): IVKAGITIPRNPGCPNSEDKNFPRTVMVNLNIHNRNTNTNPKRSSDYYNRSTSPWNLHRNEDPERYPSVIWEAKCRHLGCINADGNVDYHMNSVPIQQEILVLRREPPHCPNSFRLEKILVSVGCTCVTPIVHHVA


Columns and labels:
Recombinant Human IL-1β [1] = target: T3, Recombinant Human IL-1β (human, UniProt P01584 117-269); experiment: cell-based or functional assay
Recombinant Human IL-17 [2] = target: T1, Recombinant Human IL-17; experiment: cell-based or functional assay
Recombinant Human IL-17 [3] = target: T1, Recombinant Human IL-17; experiment: Biacore SPR; C-terminal VD
How it was run: (§1)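 Rate constants fitted globally to a 1:1 Langmuir model from antigen series of 10−200 nM flowed at 25 μl/min over captured antibody or DVD-Ig (anti-mouse IgG Fcγ capture, ligand at 25 μg/ml).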

Recombinant Human IL-1β [4] = target: T3, Recombinant Human IL-1β; experiment: Biacore SPR; N-terminal VD
How it was run: as §1

Recombinant Human IL-17 [5] = target: T2, Recombinant Human IL-17; experiment: Biacore SPR; C-terminal VD
How it was run: as §1

Recombinant Human IL-1β [6] = target: T4, Recombinant Human IL-1β (human, UniProt P01584 117-269); experiment: Biacore SPR; N-terminal VD
T4 construct: bought reagent; also called IL-1B
How it was run: as §1

Binder	N-Terminal VD IL-1β Neutralization Assay EC50 (Recombinant Human IL-1β [1]) [nM]	C-terminal VD IL-17 Neutralization Assay EC50 (Recombinant Human IL-17 [2]) [nM]	Kd (Recombinant Human IL-17 [3]) [nM]	koff (Recombinant Human IL-17 [3]) [s⁻¹]	kon (Recombinant Human IL-17 [3]) [M⁻¹ s⁻¹]	Kd (Recombinant Human IL-1β [4]) [nM]	koff (Recombinant Human IL-1β [4]) [s⁻¹]	kon (Recombinant Human IL-1β [4]) [M⁻¹ s⁻¹]	Kd (Recombinant Human IL-17 [5]) [nM]	koff (Recombinant Human IL-17 [5]) [s⁻¹]	kon (Recombinant Human IL-17 [5]) [M⁻¹ s⁻¹]	Kd (Recombinant Human IL-1β [6]) [nM]	koff (Recombinant Human IL-1β [6]) [s⁻¹]	kon (Recombinant Human IL-1β [6]) [M⁻¹ s⁻¹]
DVD1633 (bispecific antibody, human IgG1, kappa, DVD-Ig: outer AB270, inner AB274; V1/V2 vectors: wild type hIgG1, kappa) heavy: not shown light: DTQVTQSPSSLSASVGDRVTITCITSTDIDVDMNWYQQKPGKPPKLLISQGNTLRPGVPSRFSSSGSGTDFTFTISSLQPEDFATYYCLQSDNLPLTFGQGTKLEIKRTVAAPEIVLTQSPDFQSVTPKEKVTITCRASQDIGSELHWYQQKPDQPPKLLIKYASHSTSGVPSRFSGSGSGTDFTLTINGLEAEDAGTYYCHQTDSLPYTFGPGTKVDIKRTVAAPSVFIFPPSDEQLKSGTASVVCLLNNFYPREAKVQWKVDNALQSGNSQESVTEQDSKDSTYSLSSTLTLSKADYEKHKVYACEVTHQGLSSPVTKSFNRGEC	0.371	0.146	< 0.0063	< 1e-06	160000	0.063	0.00057	9e+06						
DVD1647 (bispecific antibody, human IgG1, kappa, DVD-Ig: outer AB272, inner AB275; V1/V2 vectors: wild type hIgG1, kappa) heavy: not shown light: ETTVTQSPSSLSASVGDRVTITCITSTDIDVDMNWYQQKPGKPPKLLISQGNTLRPGVPSRFSSSGSGTDFTFTISSLQPEDFATYYCLQSDNLPLTFGQGTKLEIKRTVAAPEIVLTQSPDFQSVTPKEKVTITCRASQNIGSELHWYQQKPDQSPKLLIKYASHSISGVPSRFSGSGSGTDFTLTINGLEAEDAATYYCHQSDTLPHTFGQGTKVDIKRTVAAPSVFIFPPSDEQLKSGTASVVCLLNNFYPREAKVQWKVDNALQSGNSQESVTEQDSKDSTYSLSSTLTLSKADYEKHKVYACEVTHQGLSSPVTKSFNRGEC	0.152	0.34	0.53	9e-05	170000	0.083	0.00059	7.1e+06						
DVD1637 (bispecific antibody, human IgG1, kappa, DVD-Ig: outer AB272, inner AB274; V1/V2 vectors: wild type hIgG1, kappa) heavy: not shown light: ETTVTQSPSSLSASVGDRVTITCITSTDIDVDMNWYQQKPGKPPKLLISQGNTLRPGVPSRFSSSGSGTDFTFTISSLQPEDFATYYCLQSDNLPLTFGQGTKLEIKRTVAAPEIVLTQSPDFQSVTPKEKVTITCRASQDIGSELHWYQQKPDQPPKLLIKYASHSTSGVPSRFSGSGSGTDFTLTINGLEAEDAGTYYCHQTDSLPYTFGPGTKVDIKRTVAAPSVFIFPPSDEQLKSGTASVVCLLNNFYPREAKVQWKVDNALQSGNSQESVTEQDSKDSTYSLSSTLTLSKADYEKHKVYACEVTHQGLSSPVTKSFNRGEC	0.552	0.0271	≤ 0.0025	< 1e-06	230000	0.075	0.00059	7.9e+06						
DVD1643 (bispecific antibody, human IgG1, kappa, DVD-Ig: outer AB270, inner AB275; V1/V2 vectors: wild type hIgG1, kappa) heavy: not shown light: DTQVTQSPSSLSASVGDRVTITCITSTDIDVDMNWYQQKPGKPPKLLISQGNTLRPGVPSRFSSSGSGTDFTFTISSLQPEDFATYYCLQSDNLPLTFGQGTKLEIKRTVAAPEIVLTQSPDFQSVTPKEKVTITCRASQNIGSELHWYQQKPDQSPKLLIKYASHSISGVPSRFSGSGSGTDFTLTINGLEAEDAATYYCHQSDTLPHTFGQGTKVDIKRTVAAPSVFIFPPSDEQLKSGTASVVCLLNNFYPREAKVQWKVDNALQSGNSQESVTEQDSKDSTYSLSSTLTLSKADYEKHKVYACEVTHQGLSSPVTKSFNRGEC	0.465	0.121	0.52	9.4e-05	180000	0.074	0.00048	6.5e+06						
DVD1639 (bispecific antibody, human IgG1, kappa, V1/V2 vectors: wild type hIgG1, kappa) heavy: not shown light: DIQMTQSPSSLSASVGDRVTITCRASGNIHNYLTWYQQTPGKAPKLLIYNAKTLADGVPSRFSGSGSGTDYTFTISSLQPEDIATYYCQHFWSIPYTFGQGTKLQITRTVAAPEIVLTQSPDFQSVTPKEKVTITCRASQNIGSELHWYQQKPDQSPKLLIKYASHSISGVPSRFSGSGSGTDFTLTINGLEAEDAATYYCHQSDTLPHTFGQGTKVDIKRTVAAPSVFIFPPSDEQLKSGTASVVCLLNNFYPREAKVQWKVDNALQSGNSQESVTEQDSKDSTYSLSSTLTLSKADYEKHKVYACEVTHQGLSSPVTKSFNRGEC	0.0113	2.61	≤ 0.0028	≤ 1e-06	370000	0.045	5.6e-05	1.2e+06						
DVD1629 (bispecific antibody, human IgG1, kappa, V1 wt hIgG1, V2 kappa; also called DVD1629H; DVD1629L) heavy: not shown light: DIQMTQSPSSLSASVGDRVTITCRASGNIHNYLTWYQQTPGKAPKLLIYNAKTLADGVPSRFSGSGSGTDYTFTISSLQPEDIATYYCQHFWSIPYTFGQGTKLQITRTVAAPEIVLTQSPDFQSVTPKEKVTITCRASQDIGSELHWYQQKPDQPPKLLIKYASHSTSGVPSRFSGSGSGTDFTLTINGLEAEDAGTYYCHQTDSLPYTFGPGTKVDIKRTVAAPSVFIFPPSDEQLKSGTASVVCLLNNFYPREAKVQWKVDNALQSGNSQESVTEQDSKDSTYSLSSTLTLSKADYEKHKVYACEVTHQGLSSPVTKSFNRGEC									≤ 0.00011	< 1e-06	1.4e+06	0.039	7.3e-05	1.9e+06
DVD1641 (bispecific antibody, human IgG1, kappa, V1/V2 vectors: wild type hIgG1, kappa) heavy: not shown light: DIQMTQSPSSLSASVGDRVTITCRASGNIHNYLTWYQQTPGKAPKLLIYNAKTLADGVPSRFSGSGSGTDYTFTISSLQPEDIATYYCQHFWSIPYTFGQGTKLQITRTVAAPEIVLTQSPDFQSVTPKEKVTITCRASQNIGSELHWYQQKPDQSPKLLIKYASHSISGVPSRFSGSGSGTDFTLTINGLEAEDAATYYCHQSDTLPHTFGQGTKVDIKRTVAAPSVFIFPPSDEQLKSGTASVVCLLNNFYPREAKVQWKVDNALQSGNSQESVTEQDSKDSTYSLSSTLTLSKADYEKHKVYACEVTHQGLSSPVTKSFNRGEC	0.0786	1.87	0.27	2.2e-05	84000	0.018	1.9e-05	1e+06						
DVD1631 (bispecific antibody, human IgG1, kappa, V1 wt hIgG1, V2 kappa; also called DVD1631H; DVD1631L) heavy: not shown light: DIQMTQSPSSLSASVGDRVTITCRASGNIHNYLTWYQQTPGKAPKLLIYNAKTLADGVPSRFSGSGSGTDYTFTISSLQPEDIATYYCQHFWSIPYTFGQGTKLQITRTVAAPEIVLTQSPDFQSVTPKEKVTITCRASQDIGSELHWYQQKPDQPPKLLIKYASHSTSGVPSRFSGSGSGTDFTLTINGLEAEDAGTYYCHQTDSLPYTFGPGTKVDIKRTVAAPSVFIFPPSDEQLKSGTASVVCLLNNFYPREAKVQWKVDNALQSGNSQESVTEQDSKDSTYSLSSTLTLSKADYEKHKVYACEVTHQGLSSPVTKSFNRGEC									≤ 0.00014	< 1e-06	250000	0.017	2.2e-05	1.3e+06
DVD1635 (bispecific antibody, human IgG1, kappa, DVD-Ig: outer AB271, inner AB274; V1/V2 vectors: wild type hIgG1, kappa) heavy: not shown light: DTVVTQSPAFLSVTPGEKVTITCITSTDIDVDMNWYQQKPDQPPKLLISQGNTLRPGVPSRFSSSGSGTDFTFTISSLEAEDAATYYCLQSDNLPLTFGQGTKLEIKRTVAAPEIVLTQSPDFQSVTPKEKVTITCRASQDIGSELHWYQQKPDQPPKLLIKYASHSTSGVPSRFSGSGSGTDFTLTINGLEAEDAGTYYCHQTDSLPYTFGPGTKVDIKRTVAAPSVFIFPPSDEQLKSGTASVVCLLNNFYPREAKVQWKVDNALQSGNSQESVTEQDSKDSTYSLSSTLTLSKADYEKHKVYACEVTHQGLSSPVTKSFNRGEC	0.24	0.127	0.14	4.9e-05	360000	0.06	0.00045	7.6e+06						
DVD1645 (bispecific antibody, human IgG1, kappa, DVD-Ig: outer AB271, inner AB275; V1/V2 vectors: wild type hIgG1, kappa) heavy: not shown light: DTVVTQSPAFLSVTPGEKVTITCITSTDIDVDMNWYQQKPDQPPKLLISQGNTLRPGVPSRFSSSGSGTDFTFTISSLEAEDAATYYCLQSDNLPLTFGQGTKLEIKRTVAAPEIVLTQSPDFQSVTPKEKVTITCRASQNIGSELHWYQQKPDQSPKLLIKYASHSISGVPSRFSGSGSGTDFTLTINGLEAEDAATYYCHQSDTLPHTFGQGTKVDIKRTVAAPSVFIFPPSDEQLKSGTASVVCLLNNFYPREAKVQWKVDNALQSGNSQESVTEQDSKDSTYSLSSTLTLSKADYEKHKVYACEVTHQGLSSPVTKSFNRGEC	0.417	0.15	0.65	8.1e-05	120000	0.08	0.00056	7e+06						
